Experimental data taken from US10369187B2, “Peptide regulators of JNK family kinases” (Vanderbilt University, priority 2017, dated 2019).

Assays:
ASK1 = molecular target: T1, ASK1 (Homo sapiens, UniProt Q99683); test: Co-immunoprecipitation of HA-ASK1 with YFP construct from COS7 cells; format: binding; conditions: HA-ASK1 and YFP-T1A co-expressed in COS7 cells, anti-GFP antibody
T1 construct: expressed in transfected cells; host or cells: COS7
T1 sequence (Q99683 1-1374): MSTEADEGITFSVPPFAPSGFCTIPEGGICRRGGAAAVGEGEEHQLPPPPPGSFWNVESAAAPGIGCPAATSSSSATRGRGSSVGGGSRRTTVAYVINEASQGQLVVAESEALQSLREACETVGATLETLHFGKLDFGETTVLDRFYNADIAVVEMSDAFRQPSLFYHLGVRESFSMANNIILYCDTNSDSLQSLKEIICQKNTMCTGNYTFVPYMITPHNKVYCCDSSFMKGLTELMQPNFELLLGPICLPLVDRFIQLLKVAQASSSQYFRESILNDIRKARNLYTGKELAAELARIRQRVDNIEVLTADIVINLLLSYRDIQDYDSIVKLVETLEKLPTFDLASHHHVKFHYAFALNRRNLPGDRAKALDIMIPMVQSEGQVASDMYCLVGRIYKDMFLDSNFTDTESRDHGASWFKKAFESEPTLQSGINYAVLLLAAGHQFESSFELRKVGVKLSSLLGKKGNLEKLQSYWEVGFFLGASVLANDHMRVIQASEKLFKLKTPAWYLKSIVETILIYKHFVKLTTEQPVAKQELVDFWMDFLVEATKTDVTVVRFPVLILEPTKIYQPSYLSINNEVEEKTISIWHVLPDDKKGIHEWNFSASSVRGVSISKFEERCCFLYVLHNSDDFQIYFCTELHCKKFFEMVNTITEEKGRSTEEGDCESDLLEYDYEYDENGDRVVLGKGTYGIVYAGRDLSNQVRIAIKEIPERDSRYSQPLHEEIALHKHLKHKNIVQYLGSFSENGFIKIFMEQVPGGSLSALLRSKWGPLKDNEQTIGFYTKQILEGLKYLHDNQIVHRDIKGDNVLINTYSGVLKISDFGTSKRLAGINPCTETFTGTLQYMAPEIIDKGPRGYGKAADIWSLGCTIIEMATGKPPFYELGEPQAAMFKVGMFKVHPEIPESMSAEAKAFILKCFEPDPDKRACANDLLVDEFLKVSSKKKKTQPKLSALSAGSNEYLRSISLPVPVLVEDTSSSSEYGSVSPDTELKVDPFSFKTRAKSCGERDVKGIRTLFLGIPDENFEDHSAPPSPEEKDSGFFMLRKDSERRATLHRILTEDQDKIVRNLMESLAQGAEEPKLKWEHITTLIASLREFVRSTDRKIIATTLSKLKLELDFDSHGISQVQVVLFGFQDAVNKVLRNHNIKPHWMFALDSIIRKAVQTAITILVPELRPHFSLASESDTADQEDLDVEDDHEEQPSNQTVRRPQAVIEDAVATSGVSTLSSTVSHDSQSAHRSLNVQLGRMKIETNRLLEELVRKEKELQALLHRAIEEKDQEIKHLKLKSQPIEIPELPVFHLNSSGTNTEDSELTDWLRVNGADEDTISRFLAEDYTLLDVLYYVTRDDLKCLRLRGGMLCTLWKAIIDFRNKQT
Protocol: T1A was expressed in E. coli as an MBP-fusion and purified it on an amylose column^23. The ability of purified GST-MKK4 or GST-MKK7 (FIG. 1A) to bind MBP-T1A immobilized on an amylose column was tested in an in vitro pull-down assay, where MBP and MBP-arrestin-3 served as negative and positive controls, respectively (FIG. 1B). MBP-T1A, but not control MBP, effectively retained both kinases (FIG. 1B). […] Next, it was tested whether T1A binds the uppermost kinase in the cascade, ASK1. Because ASK1 is not available in purified form, HA-tagged ASK1 and YFP-tagged T1A (using YFP as a control) were co-expressed in COS7 cells, lysed the cells, and immunoprecipitated YFP constructs with anti-GFP antibody (FIG. 1C).

MKK7-JNK3 module = test: JNK3 phosphorylation by co-expressed MKK7 in cells; format: cell-based, African green monkey; conditions: YFP-T1A co-expressed with MKK7 in COS7 cells
Protocol: To test whether T1A can promote JNK3 phosphorylation by MKKs in cells, MKK4 or MKK7 was co-expressed with YFP-T1A in COS7 cells, using YFP and full-length arrestin-3 as negative and positive controls, respectively (FIG. 2C).
COS-7 African green monkey cells were maintained in DMEM supplemented with 10% heat-inactivated FBS (Invitrogen), penicillin, and streptomycin at 37° C. in a humidified incubator with 5% CO2. The cells were plated at 80-90% confluence and transfected using Lipofectamine 2000 (Invitrogen) according to the manufacturer's instructions. Cells were used 48 h post-transfection and serum-starved overnight before experiments.
COS-7 cells were incubated with phosphatase inhibitors (50 mM NaF and 10 mM Na3VO4) in serum-free medium for 15 min at 37° C.; washed with cold PBS; and lysed with SDS lysis buffer containing 1% SDS, 10 mM Tris (pH7.4), 10 mM NaF, 100 μM Na3VO4, 2 mM EDTA, 2 mM benzamidine and 1 mM PMSF. JNKs activity was assayed by Western blotting using an antibody specific for phosphorylated JNK to detect phosphorylated (active) JNKs^17,20,23. […] Protein was measured using the Bio-Rad Coomassie Blue assay. […] Protein bands were detected by enhanced chemiluminescence (ECL, Pierce), followed by exposure to x-ray film. To quantify phospho-JNKs, serial dilutions of anisomycin (1 μg/ml)-stimulated HEK-A cell lysates were used to ensure that all samples were in linear range. […]

MGEKPGTRVFKKSSPNCKLTVYLGK (bovine) [T1A, first 25 residues of arrestin-3]
binding of ASK1 (co-immunoprecipitation) (ASK1): binds all upstream kinases of its activation cascade
JNK3 phosphorylation by MKK7 in cells (MKK7-JNK3 module): necessary and sufficient to promote the signaling
